From PMC2822101 (Journal of molecular biology, 2009)

B1: DnaJ (natural protein, UniProt P08622 1-376, looked up)
chain: MAKQDYYEILGVSKTAEEREIRKAYKRLAMKYHPDRNQGDKEAEAKFKEIKEAYEVLTDSQKRAAYDQYGHAAFEQGGMGGGGFGGGADFSDIFGDVFGDIFGGGRGRQRAARGADLRYNMELTLEEAVRGVTKEIRIPTLEECDVCHGSGAKPGTQPQTCPTCHGSGQVQMRQGFFAVQQTCPHCQGRGTLIKDPCNKCHGHGRVERSKTLSVKIPAGVDTGDRIRLAGEGEAGEHGAPAGDLYVQVQVKQHPIFEREGNNLYCEVPINFAMAALGGEIEVPTLDGRVKLKVPGETQTGKLFRMRGKGVKSVRGGAQGDLLCRVVVETPVGLNERQKQLLQELQESFGGPTGEHNSPRSKSFFDGVKKFFDDLTR
B2: aggregated glucose-6-phosphate dehydrogenase (G6PDH) from Leuconostoc mesenteroides (enzyme, UniProt P11411 1-486, looked up)
chain: MVSEIKTLVTFFGGTGDLAKRKLYPSVFNLYKKGYLQKHFAIVGTARQALNDDEFKQLVRDSIKDFTDDQAQAEAFIEHFSYRAHDVTDAASYAVLKEAIEEAADKFDIDGNRIFYMSVAPRFFGTIAKYLKSEGLLADTGYNRLMIEKPFGTSYDTAAELQNDLENAFDDNQLFRIDHYLGKEMVQNIAALRFGNPIFDAAWNKDYIKNVQVTLSEVLGVEERAGYYDTAGALLDMIQNHTMQIVGWLAMEKPESFTDKDIRAAKNAAFNALKIYDEAEVNKYFVRAQYGAGDSADFKPYLEELDVPADSKNNTFIAGELQFDLPRWEGVPFYVRSGKRLAAKQTRVDIVFKAGTFNFGSEQEAQEAVLSIIIDPKGAIELKLNAKSVEDAFNTRTIDLGWTVSDEDKKNTPEPYERMIHDTMNGDGSNFADWNGVSIAWKFVDAISAVYTADKAPLETYKSGSMGPEASDKLLAANGDAWVFKG

Key:
Assay in all cases: retention with aggregates on a 0.1-μm filter, SDS-PAGE
[1] = molecular target: B2
[2] = molecular target: DnaK (UniProt P0A6Y8 1-638)
[3] = molecular target: ClpB95(E279Q/E678Q) (E. coli, UniProt P63284 1-857, E279Q | E678Q)

| Binder | binding result [1] | binding result [2] | binding result [3] |
| --- | --- | --- | --- |
| B1 | binds |  |  |
| B2 |  | binds | binds |
